Reference: article PMC9482650, “Quantitative fragmentomics allow affinity mapping of interactomes” (Nature Communications, 2022)

Columns and labels:
Test in all cases: holdup assay
Design in all cases: key: below the threshold = too weak to quantify, mostly under pKd 3.1 to 4
Inadl_4, Q8NI35 = biological target: Inadl_4, Q8NI35
LNX2_3, Q8N448 = biological target: T1, LNX2_3, Q8N448
T1 sequence (Q8N448 463-564, limits assumed, looked up): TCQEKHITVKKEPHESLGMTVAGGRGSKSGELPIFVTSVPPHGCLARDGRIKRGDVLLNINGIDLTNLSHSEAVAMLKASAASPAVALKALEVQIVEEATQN

MAGI1_1, Q96QZ7 = biological target: MAGI1_1, Q96QZ7
SNX27, Q96L92 = biological target: SNX27, Q96L92
TJP1_2, Q07157 = biological target: TJP1_2, Q07157
GOPC, Q9HD26 = biological target: GOPC, Q9HD26
GRIP2_4, Q9C0E4 = biological target: GRIP2_4, Q9C0E4
LNX2_2, Q8N448 = biological target: T2, LNX2_2, Q8N448
T2 sequence (Q8N448 334-432, limits assumed, looked up): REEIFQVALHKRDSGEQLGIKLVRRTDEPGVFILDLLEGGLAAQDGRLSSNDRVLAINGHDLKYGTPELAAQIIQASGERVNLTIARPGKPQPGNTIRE

GORASP2, Q9H8Y8 = biological target: GORASP2, Q9H8Y8
GRID2IP_2, A4D2P6 = biological target: GRID2IP_2, A4D2P6
APBA2_2, Q99767 = biological target: T3, APBA2_2, Q99767
T3 sequence (Q99767 654-744, limits assumed, looked up): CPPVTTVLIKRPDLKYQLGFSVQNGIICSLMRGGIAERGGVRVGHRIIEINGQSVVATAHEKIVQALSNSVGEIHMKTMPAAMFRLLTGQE

IL16_3, Q14005 = biological target: IL16_3, Q14005
DFNB31_3, Q9P202 = biological target: T4, DFNB31_3, Q9P202
T4 sequence (Q9P202 811-907, limits assumed, looked up): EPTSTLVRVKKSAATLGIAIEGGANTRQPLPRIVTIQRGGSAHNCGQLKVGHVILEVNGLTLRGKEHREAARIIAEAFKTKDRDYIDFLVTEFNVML

TJP1_3, Q07157 = biological target: TJP1_3, Q07157
MAST1, Q9Y2H9 = biological target: MAST1, Q9Y2H9
NHERF3_3, Q5T2W1 = biological target: T5, NHERF3_3, Q5T2W1
T5 sequence (Q5T2W1 238-333, limits assumed, looked up): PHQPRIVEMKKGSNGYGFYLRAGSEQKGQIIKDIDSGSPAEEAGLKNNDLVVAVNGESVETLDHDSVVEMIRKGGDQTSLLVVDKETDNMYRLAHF

Inadl_1, Q8NI35 = biological target: Inadl_1, Q8NI35
MPDZ_10, O75970 = biological target: T6, MPDZ_10, O75970
T6 sequence (O75970 1624-1722, limits assumed, looked up): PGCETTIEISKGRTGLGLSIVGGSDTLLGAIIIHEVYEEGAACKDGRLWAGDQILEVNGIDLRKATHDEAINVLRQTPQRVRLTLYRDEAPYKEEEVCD

Inadl_9, Q8NI35 = biological target: Inadl_9, Q8NI35
HTRA3, P83110 = biological target: T7, HTRA3, P83110
T7 sequence (P83110 354-453, limits assumed, looked up): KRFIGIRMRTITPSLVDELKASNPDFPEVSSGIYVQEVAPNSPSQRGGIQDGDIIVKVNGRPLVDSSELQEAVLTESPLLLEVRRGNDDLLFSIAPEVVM

GRIP2_5, Q9C0E4 = biological target: GRIP2_5, Q9C0E4
MAGI3_2, Q5TCQ9 = biological target: MAGI3_2, Q5TCQ9
Inadl_5, Q8NI35 = biological target: Inadl_5, Q8NI35
PICK1, Q9NRD5 = biological target: PICK1, Q9NRD5
HTRA2, O43464 = biological target: HTRA2, O43464
DFNB31_2, Q9P202 = biological target: T8, DFNB31_2, Q9P202
T8 sequence (Q9P202 274-371, limits assumed, looked up): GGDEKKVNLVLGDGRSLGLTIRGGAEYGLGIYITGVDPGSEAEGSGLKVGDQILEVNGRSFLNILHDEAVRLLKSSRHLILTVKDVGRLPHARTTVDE

DLG1_3, Q12959 = biological target: DLG1_3, Q12959
HTRA1, Q92743 = biological target: HTRA1, Q92743
ARHGEF11, O15085 = biological target: T9, ARHGEF11, O15085
T9 sequence (O15085 42-136, limits assumed, looked up): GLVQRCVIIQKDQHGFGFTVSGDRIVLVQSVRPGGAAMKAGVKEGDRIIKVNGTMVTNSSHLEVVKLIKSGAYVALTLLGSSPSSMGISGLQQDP

[1] = plain residues with an end cap or a label only (N-terminal biotin on a linker: ado-ado)
[2] = plain residues with an end cap or a label only (N-terminal biotin on a linker: ttds)

Measured: pKd

TJP1_2, Q07157, sequence (Q07157 181-274): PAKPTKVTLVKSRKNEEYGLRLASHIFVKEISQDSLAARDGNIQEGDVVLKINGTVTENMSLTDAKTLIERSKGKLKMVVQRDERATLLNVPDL
GRIP2_5, Q9C0E4, sequence (Q9C0E4 544-642): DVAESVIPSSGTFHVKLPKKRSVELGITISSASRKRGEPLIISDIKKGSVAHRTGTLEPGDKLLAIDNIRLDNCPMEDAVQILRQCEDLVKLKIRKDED
Inadl_1, Q8NI35, sequence (Q8NI35 113-229): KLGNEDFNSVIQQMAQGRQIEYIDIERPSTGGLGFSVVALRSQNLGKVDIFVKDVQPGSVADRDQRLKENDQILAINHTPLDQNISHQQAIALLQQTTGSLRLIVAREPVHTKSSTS
HTRA2, O43464, sequence (O43464 355-458): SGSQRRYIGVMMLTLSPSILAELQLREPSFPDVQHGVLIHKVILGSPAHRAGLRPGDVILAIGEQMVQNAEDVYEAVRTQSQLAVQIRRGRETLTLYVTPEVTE
HTRA1, Q92743, sequence (Q92743 360-477): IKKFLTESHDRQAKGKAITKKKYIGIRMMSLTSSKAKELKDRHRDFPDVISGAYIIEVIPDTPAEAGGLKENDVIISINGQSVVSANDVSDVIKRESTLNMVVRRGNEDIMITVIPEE
PICK1, Q9NRD5, sequence (Q9NRD5 17-115): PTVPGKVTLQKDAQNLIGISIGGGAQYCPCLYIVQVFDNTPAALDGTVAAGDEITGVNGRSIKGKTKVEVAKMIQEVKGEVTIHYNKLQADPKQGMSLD
MAGI3_2, Q5TCQ9, sequence (Q5TCQ9 398-503): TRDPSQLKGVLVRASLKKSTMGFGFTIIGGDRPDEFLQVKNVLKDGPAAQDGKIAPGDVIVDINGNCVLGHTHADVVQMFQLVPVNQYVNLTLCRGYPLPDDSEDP
IL16_3, Q14005, sequence (Q14005 1107-1207): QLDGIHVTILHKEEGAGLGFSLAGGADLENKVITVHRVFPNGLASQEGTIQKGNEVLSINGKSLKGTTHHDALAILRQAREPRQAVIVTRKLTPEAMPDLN
GRID2IP_2, A4D2P6, sequence (A4D2P6 272-370): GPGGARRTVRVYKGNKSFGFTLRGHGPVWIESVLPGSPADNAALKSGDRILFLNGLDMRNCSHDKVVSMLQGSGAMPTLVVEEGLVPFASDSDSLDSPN
GRIP2_4, Q9C0E4, sequence (Q9C0E4 446-548): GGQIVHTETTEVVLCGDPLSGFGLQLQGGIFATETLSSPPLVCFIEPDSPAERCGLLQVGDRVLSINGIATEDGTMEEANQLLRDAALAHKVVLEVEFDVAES
MAST1, Q9Y2H9, sequence (Q9Y2H9 962-1065): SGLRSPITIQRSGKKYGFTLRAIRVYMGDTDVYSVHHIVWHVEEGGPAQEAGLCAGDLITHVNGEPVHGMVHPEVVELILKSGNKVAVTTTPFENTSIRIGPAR
TJP1_3, Q07157, sequence (Q07157 416-512): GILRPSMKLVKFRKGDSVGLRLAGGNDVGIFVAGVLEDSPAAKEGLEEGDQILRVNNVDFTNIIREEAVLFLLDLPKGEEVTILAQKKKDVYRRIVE
Inadl_4, Q8NI35, sequence (Q8NI35 547-651): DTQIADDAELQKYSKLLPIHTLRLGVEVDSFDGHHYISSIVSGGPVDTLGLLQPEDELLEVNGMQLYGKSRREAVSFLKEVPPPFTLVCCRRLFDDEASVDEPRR
Inadl_5, Q8NI35, sequence (Q8NI35 673-780): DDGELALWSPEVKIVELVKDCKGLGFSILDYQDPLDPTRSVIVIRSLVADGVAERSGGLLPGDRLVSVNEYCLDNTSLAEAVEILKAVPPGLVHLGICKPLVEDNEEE
Inadl_9, Q8NI35, sequence (Q8NI35 1530-1615): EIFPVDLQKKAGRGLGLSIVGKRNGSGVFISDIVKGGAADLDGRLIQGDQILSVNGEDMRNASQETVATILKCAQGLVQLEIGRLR
MAGI1_1, Q96QZ7, sequence (Q96QZ7 1-106): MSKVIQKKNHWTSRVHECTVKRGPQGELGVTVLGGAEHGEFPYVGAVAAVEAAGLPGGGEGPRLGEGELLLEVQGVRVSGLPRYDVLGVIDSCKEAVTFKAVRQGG
DLG1_3, Q12959, sequence (Q12959 457-571): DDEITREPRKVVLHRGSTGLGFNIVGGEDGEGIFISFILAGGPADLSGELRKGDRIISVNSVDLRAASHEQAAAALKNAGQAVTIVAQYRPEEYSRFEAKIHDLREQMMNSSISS

B1: KIDINS220, Q9ULH0 (peptide)
chain: GFGEERESIL
3.55: GOPC, Q9HD26; [1]
3.8: ARHGEF11, O15085; [1]
4.66: MAST1, Q9Y2H9; [1]
4.14: PICK1, Q9NRD5; [1]
4.6: HTRA1, Q92743; [1]
3.86: GRID2IP_2, A4D2P6; [1]
below the threshold: Inadl_4, Q8NI35; [1] | LNX2_3, Q8N448; [1] | MAGI1_1, Q96QZ7; [1] | TJP1_2, Q07157; [1] | GRIP2_4, Q9C0E4; [1] | LNX2_2, Q8N448; [1] | GORASP2, Q9H8Y8; [1] | APBA2_2, Q99767; [1] | IL16_3, Q14005; [1] | DFNB31_3, Q9P202; [1] | TJP1_3, Q07157; [1] | NHERF3_3, Q5T2W1; [1] | Inadl_1, Q8NI35; [1] | MPDZ_10, O75970; [1] | Inadl_9, Q8NI35; [1] | HTRA3, P83110; [1] | GRIP2_5, Q9C0E4; [1] | MAGI3_2, Q5TCQ9; [1] | Inadl_5, Q8NI35; [1] | HTRA2, O43464; [1] | DFNB31_2, Q9P202; [1] | DLG1_3, Q12959; [1]
5.59: SNX27, Q96L92; [1]

B2: TANC2, Q9HCD6 (peptide)
chain: PKRPFVESNV
3.51: MPDZ_10, O75970; [2]
3.77: DLG1_3, Q12959; [2]
4.8: SNX27, Q96L92; [2]
below the threshold: Inadl_4, Q8NI35; [2] | LNX2_3, Q8N448; [2] | MAGI1_1, Q96QZ7; [2] | TJP1_2, Q07157; [2] | GOPC, Q9HD26; [2] | GRIP2_4, Q9C0E4; [2] | LNX2_2, Q8N448; [2] | GORASP2, Q9H8Y8; [2] | GRID2IP_2, A4D2P6; [2] | APBA2_2, Q99767; [2] | IL16_3, Q14005; [2] | DFNB31_3, Q9P202; [2] | TJP1_3, Q07157; [2] | MAST1, Q9Y2H9; [2] | NHERF3_3, Q5T2W1; [2] | Inadl_1, Q8NI35; [2] | Inadl_9, Q8NI35; [2] | HTRA3, P83110; [2] | GRIP2_5, Q9C0E4; [2] | Inadl_5, Q8NI35; [2] | PICK1, Q9NRD5; [2] | HTRA2, O43464; [2] | DFNB31_2, Q9P202; [2] | HTRA1, Q92743; [2] | ARHGEF11, O15085; [2]
4.55: MAGI3_2, Q5TCQ9; [2]

B3: CIT, O14578 (peptide)
chain: VNKVWDQSSV
4.51: MAST1, Q9Y2H9; [2]
below the threshold: Inadl_4, Q8NI35; [2] | LNX2_3, Q8N448; [2] | MAGI1_1, Q96QZ7; [2] | TJP1_2, Q07157; [2] | GRIP2_4, Q9C0E4; [2] | LNX2_2, Q8N448; [2] | GORASP2, Q9H8Y8; [2] | APBA2_2, Q99767; [2] | IL16_3, Q14005; [2] | DFNB31_3, Q9P202; [2] | TJP1_3, Q07157; [2] | NHERF3_3, Q5T2W1; [2] | Inadl_1, Q8NI35; [2] | MPDZ_10, O75970; [2] | Inadl_9, Q8NI35; [2] | HTRA3, P83110; [2] | GRIP2_5, Q9C0E4; [2] | MAGI3_2, Q5TCQ9; [2] | Inadl_5, Q8NI35; [2] | PICK1, Q9NRD5; [2] | HTRA2, O43464; [2] | DFNB31_2, Q9P202; [2] | HTRA1, Q92743; [2] | ARHGEF11, O15085; [2]
5.11: SNX27, Q96L92; [2]
3.49: DLG1_3, Q12959; [2]
3.74: GRID2IP_2, A4D2P6; [2]
3.77: GOPC, Q9HD26; [2]
